Source: patent publication US20190071480A1 (Biogen, published 2019)
Positions count from the first letter of the chain named. Bridges are numbered along the chain shown (N, C = ends).

Legend:
[1] = molecular target: T1, extracellular domain of activin receptor type IIB (ActRIIBecd), biotinylated (Homo sapiens (Human), UniProt Q13705 27-117, amino-biotinylated with amine-PEG3-Biotin); assay: Mean KD column of Table 5; method not restated (BIAcore as Example 5); species also listed in Table 4
T1 construct: immobilised on a streptavidin-coated sensor chip; also called biotinylated ActRIIBecd; extracellular domain of ActRIIB
T1 sequence: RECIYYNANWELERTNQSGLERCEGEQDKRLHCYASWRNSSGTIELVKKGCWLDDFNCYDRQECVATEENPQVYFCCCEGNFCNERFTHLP
Procedure: (§1) Biosensor experiments. In one embodiment, experiments were performed on a BIAcore™ T100/T200 instrument (Pharmacia Biosensor AB) in the multichannel mode (serial flow path involving flow cells 1+2+3+4). Flow rate was 10 μl/min; temperature was 25° C.; and data were recorded at 2.5 points/s. All four segments of a sensor chip CMS were coated with streptavidin (Sigma) to a density of 2000 pg/mm² (2000 resonance units) by the aminocoupling procedure. ActRIIBecd (10 mg) and amine-PEG3-Biotin (10 mg, Pierce, Rockford, Ill.) were dissolved in 200 μl H₂O and 10 mg NaCNBH₃ was added to prepare biotinylated ActRIIBecd. The reaction mixture was heated at 70° C. for 24 h, after that a further 10 mg NaCNBH₃ was added and the reaction was heated at 70° C. for another 24 h. After cooling to room temperature, the mixture was desalted with the spin column (3,000 molecular weight cut off (MWCO)). Biotinylated ActRIIBecd was collected, freeze-dried and used for streptavidin (SA) chip preparation. Amino-biotinylated ActRIIBecd was then immobilized independently on flow cells 2-4 for 10 minutes at a flow rate of 5 μL/min and a concentration of 20 μM in 10 mM sodium acetate, pH 4.0, at a density of 50-250 resonance units (RU). The stored polypeptides were dissolved in glycine buffer (2.5 g of glycine, 0.5 g of sucrose, 370 mg of L-glutamate, 10 mg of sodium chloride, and 10 mg of Tween 80 in 100 mL water, pH 4.5) to prepare 10 mg/mL solution and then diluted with previous glycine buffer to prepare analytes with various concentration. Sensograms were recorded during flow of the analyte (the ActRIIBecd-associated polypeptides (i.e., domains) as previously described) first through flow cell 1 (control) then through flow cell 2 (biotinylated ActRIIBecd). The sensogram obtained for flow cell 1 was subtracted from the sensogram obtained for flow cell 2. The sensograms obtained at 1.11, 3.33, 10, 30, and 90 nM analyte were evaluated for equilibrium binding, association rate, and dissociation rate by using the programs supplied with the instrument (BIA evaluation 2.1; Software Handbook. 1995; Pharmacia Biosensor AB).

[2] = molecular target: T1, extracellular domain of activin …; assay: BIAcore SPR as Example 5 (method not restated); SD ±1.67 nM
Procedure: as §1, with “Biotinylated ActRIIBecd was collected, freeze-dried and used for streptavidin (SA) chip preparation. Amino-biotinylated ActRIIBecd was then immobilized independently on flow cells 2-4 for 10 minutes at a flow rate of 5 μL/min and a concentration of 20 μM in 10 mM sodium acetate, pH 4.0, at a density of 50-250 resonance units (RU). The stored polypeptides were dissolved in glycine buffer (2.5 g of glycine, 0.5 g of sucrose, 370 mg of L-glutamate, 10 mg of sodium chloride, and 10 mg of Tween 80 in 100 mL water, pH 4.5) to prepare 10 mg/mL solution and then diluted with previous glycine buffer to prepare analytes with various concentration.” left out, “The sensogram obtained for flow cell 1 was subtracted from the sensogram obtained for flow cell 2.” left out

[3] = molecular target: T1, extracellular domain of activin …; assay: BIAcore SPR as Example 5 (method not restated); SD ±2.15 nM
Procedure: as §1, with “Biotinylated ActRIIBecd was collected, freeze-dried and used for streptavidin (SA) chip preparation. Amino-biotinylated ActRIIBecd was then immobilized independently on flow cells 2-4 for 10 minutes at a flow rate of 5 μL/min and a concentration of 20 μM in 10 mM sodium acetate, pH 4.0, at a density of 50-250 resonance units (RU). The stored polypeptides were dissolved in glycine buffer (2.5 g of glycine, 0.5 g of sucrose, 370 mg of L-glutamate, 10 mg of sodium chloride, and 10 mg of Tween 80 in 100 mL water, pH 4.5) to prepare 10 mg/mL solution and then diluted with previous glycine buffer to prepare analytes with various concentration.” left out, “The sensogram obtained for flow cell 1 was subtracted from the sensogram obtained for flow cell 2.” left out

[4] = molecular target: T1, extracellular domain of activin …; assay: BIAcore SPR as Example 5 (method not restated); SD ±1.63 nM
Procedure: as §1, with “Biotinylated ActRIIBecd was collected, freeze-dried and used for streptavidin (SA) chip preparation. Amino-biotinylated ActRIIBecd was then immobilized independently on flow cells 2-4 for 10 minutes at a flow rate of 5 μL/min and a concentration of 20 μM in 10 mM sodium acetate, pH 4.0, at a density of 50-250 resonance units (RU). The stored polypeptides were dissolved in glycine buffer (2.5 g of glycine, 0.5 g of sucrose, 370 mg of L-glutamate, 10 mg of sodium chloride, and 10 mg of Tween 80 in 100 mL water, pH 4.5) to prepare 10 mg/mL solution and then diluted with previous glycine buffer to prepare analytes with various concentration.” left out, “The sensogram obtained for flow cell 1 was subtracted from the sensogram obtained for flow cell 2.” left out

[5] = molecular target: T1, extracellular domain of activin …; assay: BIAcore SPR as Example 5 (method not restated); SD ±2.10 nM
Procedure: as §1, with “Biotinylated ActRIIBecd was collected, freeze-dried and used for streptavidin (SA) chip preparation. Amino-biotinylated ActRIIBecd was then immobilized independently on flow cells 2-4 for 10 minutes at a flow rate of 5 μL/min and a concentration of 20 μM in 10 mM sodium acetate, pH 4.0, at a density of 50-250 resonance units (RU). The stored polypeptides were dissolved in glycine buffer (2.5 g of glycine, 0.5 g of sucrose, 370 mg of L-glutamate, 10 mg of sodium chloride, and 10 mg of Tween 80 in 100 mL water, pH 4.5) to prepare 10 mg/mL solution and then diluted with previous glycine buffer to prepare analytes with various concentration.” left out, “The sensogram obtained for flow cell 1 was subtracted from the sensogram obtained for flow cell 2.” left out

[6] = molecular target: T1, extracellular domain of activin …; assay: BIAcore SPR as Example 5 (method not restated); SD ±1.55 nM
Procedure: as §1, with “The sensogram obtained for flow cell 1 was subtracted from the sensogram obtained for flow cell 2.” left out

[7] = molecular target: T1, extracellular domain of activin …; assay: Mean KD column of Table 5; method not restated (BIAcore as Example 5)
Procedure: as §1

B1: SEQ ID NO: 194, cysteine pairs C23-C27^a (designed binder)
chain: VDFSDVGWNDWIVAPPGYHAFYCHGECPFPLADHLNSTNHAIVQTLVNSVAQAKHKQRKRLKSSCKRHPLY
modifications: disulfides C23-C27 (intra)
Kd [1]: 18.1 nM
Kd [2]: 18.1 nM

B2: SEQ ID NO: 206, cysteine pairs C67-C71^a, C8-C43^b, C9-C41^b (designed binder)
chain: NSKIPKACCVPTELSAISMLYLDENEKVVLKNYQDMVVEGCGCRVDFSDVGWNDWIVAPPGYHAFYCHGECPFPLADHLNSTNHAIVQTLVNSV
modifications: disulfides C67-C71 (intra), C8-C43 (inter), C9-C41 (inter)
notes: homodimer by intermolecular disulfide
Kd [1]: 17 nM
Kd [3]: 17 nM

B3: SEQ ID NO: 230, cysteine pairs C27-C65^a (designed binder)
chain: VDFKDVGWNDHAVAPPGYHAFYCHGECPFPLADHLNSDNHAIVQTKVNSVGQAKRKGYKRLKSSCKRHPLY
modifications: disulfides C27-C65 (intra)
Kd [4]: 52.2 nM
Kd [1]: 52.2 nM

B4: SEQ ID NO: 236, cysteine pairs C59-C59^b, C8-C41^a, C9-C43^a (designed binder)
chain: NSKDPKACCVPTELSAPSPLYLDENEKPVLKNYQDMVVHGCGCRGQAKRKGYKRLKSSCKRHPLY
modifications: disulfide 8-41, 9-43; also: homodimer via intermolecular C59-C59 disulfide
notes: as for B2
Kd [1]: 16.2 nM
Kd [5]: 16.2 nM

B5: SEQ ID NO: 242, cysteine pairs C15-C15^b, C29-C64^a, C30-C62^a (designed binder)
chain: GQAKRKGYKRLKSSCKRHPLYNSKDPKACCVPTELSAPSPLYLDENEKPVLKNYQDMVVHGCGCR
modifications: disulfide 29-64, 30-62; also: homodimer via intermolecular C15-C15 disulfide
notes: as for B2
Kd [4]: 18.1 nM
Kd [1]: 18.1 nM

B6: SEQ ID NO: 260, cysteine pairs C15-C15^b, C80-C114^a, C79-C112^a, C44-C48^a (designed binder)
chain: AQAKHKQRKRLKSSCKRHPLYVDFSDVGWNDWIVAPPGYHAFYCHGECPFPLADHLNSTNHAIVQTLVNSVNSKIPKACCVPTELSAISMLYLDENEKVVLKNYQDMVVEGCGCR
modifications: disulfides C15-C15 (inter), C80-C114 (intra), C79-C112 (intra), C44-C48 (intra)
notes: as for B2
Kd [1]: 7.45 nM
Kd [2]: 7.45 nM

B7: SEQ ID NO: 284, cysteine pairs C59-C59^b, C8-C43^b, C9-C41^b, C88-C92^a (designed binder)
chain: NSKIPKACCVPTELSAISMLYLDENEKVVLKNYQDMVVEGCGCRAQAKHKQRKRLKSSCKRHPLYVDFSDVGWNDWIVAPPGYHAFYCHGECPFPLADHLNSTNHAIVQTLVNSV
modifications: disulfides C59-C59 (inter), C8-C43 (inter), C9-C41 (inter), C88-C92 (intra)
notes: as for B2
Kd [1]: 6.91 nM
Kd [6]: 6.91 nM

B8: SEQ ID NO: 308, cysteine pairs C59-C59^b, C8-C41^b, C9-C43^b, C88-C92^a (designed binder)
chain: NSKDPKACCVPTELSAPSPLYLDENEKPVLKNYQDMVVHGCGCRGQAKRKGYKRLKSSCKRHPLYVDFKDVGWNDHAVAPPGYHAFYCHGECPFPLADHLNSDNHAIVQTKVNSV
modifications: disulfides C59-C59 (inter), C8-C41 (inter), C9-C43 (inter), C88-C92 (intra)
notes: as for B2
Kd [1]: 6.73 nM
Kd [6]: 6.73 nM

B9: SEQ ID NO: 324, cysteine pairs C44-C48^a (designed binder)
chain: B6 chain with S25K, W32H, I33A, T59D, L67K
modifications: disulfides C44-C48 (intra)
Kd [7]: 8.75 nM

B10: SEQ ID NO: 324, cysteine pairs C79-C80^a (designed binder)
chain: B6 chain with S25K, W32H, I33A, T59D, L67K
modifications: disulfides C79-C80 (intra)
Kd [1]: 29.3 nM
Kd [5]: 29.3 nM

B11: SEQ ID NO: 324, cysteine pairs C80-C114^a, C79-C112^a, C44-C48^a (designed binder)
chain: B6 chain with S25K, W32H, I33A, T59D, L67K
modifications: disulfides C80-C114 (intra), C79-C112 (intra), C44-C48 (intra)
Kd [1]: 7.22 nM
Kd [3]: 7.22 nM

B12: SEQ ID NO: 340, cysteine pairs C15-C15^b, C29-C64^b, C30-C62^b, C88-C92^a (designed binder)
chain: AQAKHKQRKRLKSSCKRHPLYNSKDPKACCVPTELSAPSPLYLDENEKPVLKNYQDMVVHGCGCRVDFKDVGWNDHAVAPPGYHAFYCHGECPFPLADHLNSDNHAIVQTKVNSV
modifications: disulfides C15-C15 (inter), C29-C64 (inter), C30-C62 (inter), C88-C92 (intra)
notes: as for B2
Kd [1]: 6.37 nM
Kd [6]: 6.37 nM

B13: SEQ ID NO: 260, cysteine pairs C79-C114^a, C80-C112^a, C44-C48^a (designed binder)
chain: B6 chain
modifications: disulfides C79-C114 (intra), C80-C112 (intra), C44-C48 (intra)
Kd [7]: 6.17 nM
